Measurements from patent publication US20020164600A1 (Dana-Farber, published 2002).

T1: human PD-L2 (human, UniProt Q9BQ51 20-273)
T1 construct: Expressed on transfected COS and 300.19 cells (300-hPD-L2); also called hPD-L2
T1 sequence: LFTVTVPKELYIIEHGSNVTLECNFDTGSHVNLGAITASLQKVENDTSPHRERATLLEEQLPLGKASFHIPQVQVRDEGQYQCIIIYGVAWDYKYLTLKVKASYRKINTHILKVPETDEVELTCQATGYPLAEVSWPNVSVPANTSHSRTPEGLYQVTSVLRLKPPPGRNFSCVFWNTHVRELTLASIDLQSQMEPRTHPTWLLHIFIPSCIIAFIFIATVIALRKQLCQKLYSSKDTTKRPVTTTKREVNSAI

B1: IgG2a (control Ig) (other, mouse, UniProt P01863 98-330, looked up)
chain: EPRGPTIKPCPPCKCPAPNLLGGPSVFIFPPKIKDVLMISLSPIVTCVVVDVSEDDPDVQISWFVNNVEVHTAQTQTHREDYNSTLRVVSALPIQHQDWMSGKEFKCKVNNKDLPAPIERTISKPKGSVRAPQVYVLPPPEEEMTKKQVTLTCMVTDFMPEDIYVEWTNNGKTELNYKNTEPVLDSDGSYFMYSKLRVEKKNWVERNSYSCSVVHEGLHNHHTTKSFSRTPGK
notes: Control protein
B2: mouse PD-L2 (ligand)
chain: LFTVTAPKEVYTVDVGSSVSLECDFDRRECTELEGIRASLQKVENDTSLQSERATLLEEQLPLGKALFHIPSVQVRDSGQYRCLVICGAAWDYKYLTVKVKASYMRIDTRILEVPGTGEVQLTCQARGYPLAEVSWQNVSVPANTSHIRTPEGLYQVTSVLRLKPQPSRNFSCMFWNAHMKELTSAIIDPLSRMEPKVPRTWPLHVFIPACTIALIFLAIVIIQRKRI
notes: Expressed on transfected COS, CHO.I-A^d, CHO.I-A^d.B7-2 and 300.19 cells; also called murine PD-L2; mPD-L2

How the values were obtained:
human PD-L2 = target: T1, human PD-L2; test: FACS on transfected COS cells
IgG2a (control Ig) = target: B1; test: FACS on transfected COS cells

Row | binding result (human PD-L2) | binding result (IgG2a (control Ig)) | Binder
1 | no binding |  | B1
2 |  | no binding | B2
